Source: patent publication US20130260455A1 (ONCOMED PHARMACEUTICALS, published 2013)
Substitutions are numbered along the chain they refer to. One block for each binder: values may come before it.

Columns and labels:
[1] = molecular target: T1, hN2 11-12 (human Notch2 amino acids 413-493 fused to hFc) (human, UniProt Q04721 413-493); assay: capture ELISA: hN2-hFc from HEK-293 supernatant on anti-human Fc plates, 59R1 Fab, HRP anti-human Fab [lower graph]
T1 construct: not shown: constant region of human IgG (hFc)
T1 sequence: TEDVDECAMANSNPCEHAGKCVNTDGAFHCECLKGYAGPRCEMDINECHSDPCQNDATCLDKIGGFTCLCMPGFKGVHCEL
Method: (§1) The binding of anti-Notch2/3 antibodies to supernatant from HEK 293 cells transfected with sequences encoding recombinant human Notch2 Fc fusion proteins comprising the full length human Notch2 protein or various human Notch2 deletion constructs containing various deletions of EGF repeats one to twelve were tested by ELISA. HEK-293 cells were transiently transfected with pcDNA 3.1 (Invitrogen) with hNotch2 cDNA's encoding for the indicated amino acids fused to the constant region of human IgG (hFc). Supernatants were harvested 48 hours later. To capture hN2-hfc proteins, 96 well plates were first coated with goat anti-human Fec gamma specific IgG (Jackson Immunochemicals, #109-006-098) at 100 ng per well in sodium bicarbonate buffer overnight at 4°. Plates were washed and blocked in 5% bovine serum/PBS-Tween-20. Supernatants were added to plates and incubated at room temperature for 1 hour. Plates were washed in PBS-T. 59R1 Fab was added at 10 μg/ml in 5% serum/PBS-T and incubated at room temperature for 1 hour. Plates were washed in PBS-T. Fab binding was detected by goat anti-human Fab specific antibody conjugated to horseradish peroxidase (Thermo. #31414) diluted 1:5000 in 5% serum/PBS-T for 1 hour at room temperature. Plates were washed and developed with 1 Step Ultra TMB (Thermo. #34028). Plates were read on a Perkin Elmer Victor 1420 plate reader. […] (FIG. 3A).

[2] = molecular target: T2, hN2 12-12 (human Notch2 amino acids 454-493 fused to hFc) (human, UniProt Q04721 454-493); assay: as above
T2 construct: not shown: constant region of human IgG (hFc)
T2 chain: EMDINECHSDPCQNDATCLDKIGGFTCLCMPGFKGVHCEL
Method: as §1

[3] = molecular target: T3, hN2 1-6 (human Notch2 amino acids 1-263 fused to hFc) (human, UniProt Q04721 26-263); assay: capture ELISA: hN2-hFc from HEK-293 supernatant on anti-human Fc plates, 59R1 Fab, HRP anti-human Fab [upper graph]
T3 construct: not shown: constant region of human IgG (hFc)
T3 sequence: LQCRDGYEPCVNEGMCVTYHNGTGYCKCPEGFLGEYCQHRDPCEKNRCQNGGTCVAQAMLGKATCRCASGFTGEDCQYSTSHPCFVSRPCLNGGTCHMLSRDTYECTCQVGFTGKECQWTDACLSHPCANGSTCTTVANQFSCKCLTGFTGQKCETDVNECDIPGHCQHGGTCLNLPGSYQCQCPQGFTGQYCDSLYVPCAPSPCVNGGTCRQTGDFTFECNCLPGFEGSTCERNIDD
Method: as §1

[4] = molecular target: T4, hN2 1-3 (human Notch2 amino acids 1-144 fused to hFc) (human, UniProt Q04721 26-144); assay: as above
T4 construct: Supernatant of transfected HEK-293 cells, captured with anti-human Fc; not shown: constant region of human IgG (hFc)
Method: as §1

[5] = molecular target: T5, hN2 1-9 (human Notch2 amino acids 1-378 fused to hFc) (human, UniProt Q04721 26-378); assay: as above
T5 construct: not shown: constant region of human IgG (hFc)
T5 sequence: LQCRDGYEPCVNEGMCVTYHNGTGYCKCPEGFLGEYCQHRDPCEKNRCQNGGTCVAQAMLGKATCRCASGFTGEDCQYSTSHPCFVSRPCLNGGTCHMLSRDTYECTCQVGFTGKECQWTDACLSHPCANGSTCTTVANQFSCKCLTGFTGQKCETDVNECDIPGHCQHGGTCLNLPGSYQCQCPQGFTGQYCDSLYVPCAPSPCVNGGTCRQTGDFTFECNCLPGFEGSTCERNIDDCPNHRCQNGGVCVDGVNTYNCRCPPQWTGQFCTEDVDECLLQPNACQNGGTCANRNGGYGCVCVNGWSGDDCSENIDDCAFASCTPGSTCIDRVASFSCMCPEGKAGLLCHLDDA
Method: as §1

[6] = molecular target: T6, hN2 1-8 (human Notch2 amino acids 1-341 fused to hFc) (human, UniProt Q04721 26-341); assay: as above
T6 construct: not shown: constant region of human IgG (hFc)
T6 sequence: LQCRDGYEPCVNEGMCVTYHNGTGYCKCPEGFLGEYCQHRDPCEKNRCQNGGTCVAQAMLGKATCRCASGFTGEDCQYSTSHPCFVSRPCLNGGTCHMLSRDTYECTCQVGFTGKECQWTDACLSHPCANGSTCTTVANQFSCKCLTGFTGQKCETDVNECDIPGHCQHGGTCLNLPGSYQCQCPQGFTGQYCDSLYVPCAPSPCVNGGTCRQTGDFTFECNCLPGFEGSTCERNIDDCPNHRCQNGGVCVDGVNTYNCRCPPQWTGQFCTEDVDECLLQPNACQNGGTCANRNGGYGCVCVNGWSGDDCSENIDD
Method: as §1

[7] = molecular target: T7, hN2 1-4 (human Notch2 amino acids 1-181 fused to hFc) (human, UniProt Q04721 26-181); assay: as above
T7 construct: not shown: constant region of human IgG (hFc)
Method: as §1

[8] = molecular target: T8, hN2 1-7 (human Notch2 amino acids 1-301 fused to hFc) (human, UniProt Q04721 26-301); assay: as above
T8 construct: not shown: constant region of human IgG (hFc)
T8 sequence: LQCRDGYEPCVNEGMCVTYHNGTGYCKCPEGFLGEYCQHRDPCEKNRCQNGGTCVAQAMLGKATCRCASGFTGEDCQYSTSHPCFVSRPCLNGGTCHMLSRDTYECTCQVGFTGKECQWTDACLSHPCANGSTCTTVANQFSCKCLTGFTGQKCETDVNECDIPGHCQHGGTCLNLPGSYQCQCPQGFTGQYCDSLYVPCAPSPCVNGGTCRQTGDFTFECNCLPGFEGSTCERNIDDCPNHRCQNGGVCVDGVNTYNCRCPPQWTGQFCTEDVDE
Method: as §1

[9] = molecular target: T9, hN2 1-5 (human Notch2 amino acids 1-221 fused to hFc) (human, UniProt Q04721 26-221); assay: as above
T9 construct: not shown: constant region of human IgG (hFc)
Method: as §1

[10] = molecular target: T10, human Notch1, full length, on transfected cells (human, UniProt P46531 19-2555); assay: FACS on HEK 293 cells transiently transfected with Notch1 Full Length and GFP
T10 construct: also called hNotch1
T10 sequence (P46531 19-2555 limits assumed): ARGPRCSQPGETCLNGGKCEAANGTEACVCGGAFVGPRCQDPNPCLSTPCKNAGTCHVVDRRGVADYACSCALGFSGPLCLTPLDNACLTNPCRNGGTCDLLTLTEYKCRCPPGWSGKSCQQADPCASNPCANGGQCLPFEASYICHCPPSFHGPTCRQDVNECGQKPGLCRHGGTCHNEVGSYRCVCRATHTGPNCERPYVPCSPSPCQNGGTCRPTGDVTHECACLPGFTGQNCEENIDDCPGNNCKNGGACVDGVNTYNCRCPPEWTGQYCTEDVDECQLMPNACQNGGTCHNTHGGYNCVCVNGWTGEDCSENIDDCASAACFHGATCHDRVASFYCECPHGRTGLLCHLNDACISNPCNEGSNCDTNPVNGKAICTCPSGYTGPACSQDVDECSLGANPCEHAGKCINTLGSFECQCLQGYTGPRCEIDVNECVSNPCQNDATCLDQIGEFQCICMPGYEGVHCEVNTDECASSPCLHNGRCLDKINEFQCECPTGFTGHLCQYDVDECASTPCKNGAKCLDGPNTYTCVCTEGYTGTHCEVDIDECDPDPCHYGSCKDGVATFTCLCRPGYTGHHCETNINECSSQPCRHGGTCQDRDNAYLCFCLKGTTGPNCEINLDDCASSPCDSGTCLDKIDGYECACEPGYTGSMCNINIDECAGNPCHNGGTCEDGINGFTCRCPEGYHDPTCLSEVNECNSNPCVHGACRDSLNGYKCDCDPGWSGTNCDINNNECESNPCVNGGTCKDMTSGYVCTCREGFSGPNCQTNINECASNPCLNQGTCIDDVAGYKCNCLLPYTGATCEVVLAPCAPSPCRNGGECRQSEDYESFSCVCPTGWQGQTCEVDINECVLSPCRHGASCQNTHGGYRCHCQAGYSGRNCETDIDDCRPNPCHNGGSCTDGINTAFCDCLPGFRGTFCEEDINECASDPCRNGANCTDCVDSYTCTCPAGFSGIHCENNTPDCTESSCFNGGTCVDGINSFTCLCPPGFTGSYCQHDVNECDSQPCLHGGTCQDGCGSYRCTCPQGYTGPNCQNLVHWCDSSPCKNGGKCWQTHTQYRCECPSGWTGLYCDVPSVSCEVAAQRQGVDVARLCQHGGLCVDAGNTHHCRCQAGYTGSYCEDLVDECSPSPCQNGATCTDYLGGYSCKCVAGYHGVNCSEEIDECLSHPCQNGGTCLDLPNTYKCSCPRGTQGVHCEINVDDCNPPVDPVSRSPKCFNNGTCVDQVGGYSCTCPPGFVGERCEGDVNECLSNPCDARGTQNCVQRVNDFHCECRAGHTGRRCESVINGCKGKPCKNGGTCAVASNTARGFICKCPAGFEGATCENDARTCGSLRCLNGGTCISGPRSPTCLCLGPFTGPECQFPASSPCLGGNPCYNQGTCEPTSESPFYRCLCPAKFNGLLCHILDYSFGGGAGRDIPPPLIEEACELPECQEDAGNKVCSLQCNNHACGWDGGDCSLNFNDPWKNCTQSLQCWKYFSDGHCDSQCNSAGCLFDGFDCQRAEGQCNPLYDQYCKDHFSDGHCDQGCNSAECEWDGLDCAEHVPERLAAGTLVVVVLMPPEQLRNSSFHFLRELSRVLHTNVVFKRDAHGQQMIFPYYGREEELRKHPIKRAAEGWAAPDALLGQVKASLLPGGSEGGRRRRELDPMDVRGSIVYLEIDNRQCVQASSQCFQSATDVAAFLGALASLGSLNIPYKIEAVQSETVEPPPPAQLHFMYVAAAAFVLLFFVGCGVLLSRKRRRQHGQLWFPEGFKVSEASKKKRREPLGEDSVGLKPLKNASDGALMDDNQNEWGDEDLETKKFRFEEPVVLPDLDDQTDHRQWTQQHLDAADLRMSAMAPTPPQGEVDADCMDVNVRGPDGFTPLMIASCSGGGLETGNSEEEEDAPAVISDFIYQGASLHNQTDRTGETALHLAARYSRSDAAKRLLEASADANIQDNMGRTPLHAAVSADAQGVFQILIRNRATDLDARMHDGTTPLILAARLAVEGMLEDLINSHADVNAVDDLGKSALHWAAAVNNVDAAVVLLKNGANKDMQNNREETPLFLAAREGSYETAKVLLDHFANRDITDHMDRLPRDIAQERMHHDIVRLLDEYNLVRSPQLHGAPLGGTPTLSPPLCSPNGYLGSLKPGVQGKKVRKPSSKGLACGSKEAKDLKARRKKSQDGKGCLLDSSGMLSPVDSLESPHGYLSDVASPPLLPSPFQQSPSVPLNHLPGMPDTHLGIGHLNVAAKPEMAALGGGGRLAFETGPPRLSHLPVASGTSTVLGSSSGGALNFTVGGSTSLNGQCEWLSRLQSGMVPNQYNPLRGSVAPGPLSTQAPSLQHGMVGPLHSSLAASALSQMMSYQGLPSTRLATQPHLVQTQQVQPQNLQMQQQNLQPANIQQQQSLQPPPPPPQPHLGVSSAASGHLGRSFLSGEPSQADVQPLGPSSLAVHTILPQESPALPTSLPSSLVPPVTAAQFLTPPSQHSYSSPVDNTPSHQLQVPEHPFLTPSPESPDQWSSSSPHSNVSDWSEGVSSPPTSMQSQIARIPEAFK
Method: FIG. 15. In vitro characterization of 59R5. […] PC3 tumor cells were transiently transfected with human or mouse Notch receptor (hN2, human Notch2; mN2, murine Notch2; hN3, human Notch3; mN3, murine Notch3) and GFP inducible reporter construct. Transfected cells were incubated with different concentrations of antibody 59R1 and 59R5 in the presence of passively immobilized DLL4 Fc. […] Cells were also co-transfected with a plasmid encoding green fluorescent protein (GFP) to mark those cells that received transfected plasmid. Cells were incubated with 59R1 or 59R5 and fluorescent secondary antibody and then examined by FACS.
The binding epitope of 59R5 was determined. As was described in Example 3 for analysis of antibody 59R1, several point mutants were created within full-length Notch1, converting residues within EGF10 to the corresponding amino acids in human Notch 2. Mutants in full-length Notch sequences were generated by QuikChange® mutagenesis (Stratagene) and verified by sequencing. […] Cells were also co-transfected with a plasmid encoding green fluorescent protein (GFP) to mark those cells that received transfected plasmid. Cells were incubated with 59R1 or 59R5 and fluorescent secondary antibody and then examined by FACS. 59R1 and 59R5 were detected by PE-conjugated goat anti-human Fc gamma specific antibody (Jackson Immunochemicals, #109-116-170).

[11] = molecular target: T11, recombinant mouse Notch2 (EGF10-15) (mouse, UniProt O35516 375-605); assay: Biacore SPR
T11 construct: domain: EGF10-15; also called mNotch2; m-Notch2
T11 sequence (looked up): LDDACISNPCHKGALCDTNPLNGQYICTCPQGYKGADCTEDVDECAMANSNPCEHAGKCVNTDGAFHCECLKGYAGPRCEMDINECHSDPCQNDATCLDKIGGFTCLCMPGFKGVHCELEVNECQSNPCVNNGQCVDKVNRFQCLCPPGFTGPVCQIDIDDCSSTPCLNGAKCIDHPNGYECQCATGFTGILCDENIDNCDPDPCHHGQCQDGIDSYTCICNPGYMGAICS

[12] = molecular target: T12, human Notch2 as used in the Biacore analysis of Table 6 (construct not stated) (human, UniProt Q04721 375-605, limits assumed); assay: Biacore SPR
T12 construct: also called h-Notch2
T12 sequence: T11 sequence (looked up) with V121I, I191V, D194E

[13] = molecular target: T13, recombinant mouse Notch3 (EGF9-14) (mouse, UniProt Q61982 352-581); assay: Biacore SPR
T13 construct: domain: EGF9-14; also called mNotch3; m-Notch3
T13 sequence (looked up): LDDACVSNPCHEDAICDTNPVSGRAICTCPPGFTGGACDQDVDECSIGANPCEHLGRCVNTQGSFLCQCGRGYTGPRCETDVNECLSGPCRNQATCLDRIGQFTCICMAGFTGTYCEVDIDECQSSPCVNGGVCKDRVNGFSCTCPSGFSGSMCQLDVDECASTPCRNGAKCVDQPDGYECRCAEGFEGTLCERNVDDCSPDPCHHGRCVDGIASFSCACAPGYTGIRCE

[14] = molecular target: T14, recombinant human Notch3 (EGF9-14) (human, UniProt Q9UM47 351-580); assay: Biacore SPR
T14 construct: The whole entry for hNotch3 is named here; also called hNotch3; h-Notch3
T14 sequence: T13 sequence (looked up) with S22N, M153T, E193D, I227T

binding result [1]: no binding (tested: 10 ug/ml) | binding result [2]: no binding (tested: 10 ug/ml) | binding result [3]: no binding (tested: 10 ug/ml) | binding result [4]: no binding (tested: 10 ug/ml) | binding result [5]: no binding (tested: 10 ug/ml) | binding result [6]: no binding (tested: 10 ug/ml) | binding result [7]: no binding (tested: 10 ug/ml) | binding result [8]: no binding (tested: 10 ug/ml) | binding result [9]: no binding (tested: 10 ug/ml)
B1: 59R1 Fab (Fab, V domains shown)
VH: QVQLVESGGGLVQPGGSLRLSCAASGFTFSSSGMSWVRQAPGKGLEWVSVIASSGSNTYYADSVKGRFTISRDNSKNTLYLQMNSLRAEDTAVYYCARGIFFAIWGQGTLVTVSS
VL: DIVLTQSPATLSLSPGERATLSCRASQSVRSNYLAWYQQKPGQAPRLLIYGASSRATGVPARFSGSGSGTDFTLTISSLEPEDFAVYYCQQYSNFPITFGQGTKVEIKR
notes: also called Clone 1; 59R Fab antibody

binding result [10]: no binding | Kd [11]: 0.26 nM | Kd [12]: 0.05 nM | Kd [13]: 0.29 nM | Kd [14]: 0.22 nM
B2: 59R5 antibody (antibody, human IgG2, kappa, V domains shown)
VH: B1 VH with Q1E, G99S, F102Y, A103T, I104T
VL: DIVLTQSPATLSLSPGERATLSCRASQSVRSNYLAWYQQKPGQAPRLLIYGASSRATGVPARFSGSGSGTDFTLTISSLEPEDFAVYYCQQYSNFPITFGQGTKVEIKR
notes: Human IgG2; also called anti-Notch2/3 antibody 59R5; 59R5 IgG2
